Where two headings read alike, the source gives them in different places. Each block holds one molecule with its values, some of them ahead of it.
Assays:
[1] = biological target: Prp43 (Saccharomyces cerevisiae, UniProt P53131, F357A); test: ITC; format: binding
[2] = biological target: T1, Prp43 (Saccharomyces cerevisiae, UniProt P53131); test: ITC; format: binding
[3] = biological target: T1, Prp43; test: ITC; format: binding; remark: listed apart in the source
[4] = biological target: T2, Prp43 F357A (UniProt P53131 1-767, F357A); test: filter binding
[5] = biological target: T3, Prp43 R159A (UniProt P53131 1-767, R159A); test: filter binding
[6] = biological target: T2, Prp43 F357A; test: filter binding; remark: listed apart in the source
[7] = biological target: T4, Prp43 (UniProt P53131 1-767); test: filter binding
[8] = biological target: T3, Prp43 R159A; test: filter binding; remark: listed apart in the source
[9] = biological target: T3, Prp43 R159A; test: filter binding; remark: listed apart in the source
[10] = biological target: T2, Prp43 F357A; test: filter binding; remark: listed apart in the source
[11] = biological target: T4, Prp43; test: filter binding; remark: listed apart in the source
[12] = biological target: T3, Prp43 R159A; test: filter binding; remark: listed apart in the source

- Kd [1]: > 45000 nM
- Kd [2]: 1450 nM
Molecule: Nc1ncnc2c1ncn2[C@@H]1O[C@H](COP(=O)(O)OP(=O)(O)O)[C@@H](O)[C@H]1O [ADP]

- Kd [3]: > 25000 nM
Molecule: Nc1ccn([C@@H]2O[C@H](COP(=O)(O)OP(=O)(O)O)[C@@H](O)[C@H]2O)c(=O)n1 [CDP]

B1: 21-mer ssRNA (ssRNA)
RNA: GACGGGCUGUUGGUGAUGGAC
- Kd [4]: 43 ± 3 nM
- Kd [5]: 8 ± 1 nM
- Kd [6]: 6 ± 1 nM
- Kd [7]: 8 ± 3 nM
- Kd [8]: 3 ± 0.8 nM
- Kd [9]: 18 ± 2 nM
- Kd [10]: 14 ± 1 nM
- Kd [11]: 42 ± 17 nM
- Kd [12]: 20 ± 4 nM

Reference: paper PMC5388414 (Nucleic Acids Research, 2016)
